Data: CN108727490A (UNIV TSINGHUA; GUANGZHOU 8TH PEOPLES HOSPITAL, dated 2018)

Target: T1, E-His6融合蛋白 (寨卡病毒 (Zika virus), UniProt A0A024B7W1 292-693)
T1 construct: also called 寨卡病毒的E蛋白; E蛋白
Experiment: ELISA screen of memory B cell culture supernatants on coated E-His6 fusion protein; the antibody genes were cloned from positive wells

T1 sequence (A0A024B7W1 292-693, tags left off): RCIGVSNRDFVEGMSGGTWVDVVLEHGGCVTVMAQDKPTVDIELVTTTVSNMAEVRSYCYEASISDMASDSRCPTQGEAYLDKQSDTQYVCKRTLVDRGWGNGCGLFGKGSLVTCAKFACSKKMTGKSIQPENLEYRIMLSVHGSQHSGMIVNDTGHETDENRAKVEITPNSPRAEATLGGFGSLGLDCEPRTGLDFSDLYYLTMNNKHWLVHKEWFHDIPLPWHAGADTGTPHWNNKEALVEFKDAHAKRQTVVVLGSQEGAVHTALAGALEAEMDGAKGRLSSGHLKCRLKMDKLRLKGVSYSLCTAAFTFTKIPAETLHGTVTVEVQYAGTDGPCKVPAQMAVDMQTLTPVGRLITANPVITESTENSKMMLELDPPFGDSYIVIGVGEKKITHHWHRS

B1: 单克隆抗体ZK2B10 (antibody, human IgG1, lambda, V domains shown)
VH: EVQLVQSGAEVKKPGASVKVSCKASGYTFTSGHTFPSYDINWVRQATGQGLEWMGWMNPNRGNTGYAQKFQGRVTMTRNTSINTAYMELSSLRSEDTAVYYCARVRSGTNYGSYYYYYYGMDVWGQGTTVTVSS
VL: SYELTQPPSASGTPGQRVTISCSGSSSNIGNNYVHWYQQLPGSAPKLLIYRNNQRPSGVPDRFSGSKSGTSGSLAISGLRSEDEADYYCASWDDSLSGHWVFGGGTKVTVLG
notes: also called ZK2B10抗体; IgG抗体
  binding result: binds
